Consider one protein from patent US20220016130.

The data set addresses His-BRD4-N (amino acids 1-500), O60885.

B1: GST-SPOP (protein)
chain: MSRVPSPPPPAEMSSGPVAESWCYTQIKVVKFSYMWTINNFSFCREEMGEVIKSSTFSSGANDKLKWCLRVNPKGLDEESKDYLSLYLLLVSCPKSEVRAKFKFSILNAKGEETKAMESQRAYRFVQGKDWGFKKFIRRDFLLDEANGLLPDDKLTLFCEVSVVQDSVNISGQNTMNMVKVPECRLADELGGLWENSRFTDCCLCVAGQEFQAHKAILAARSPVFSAMFEHEMEESKKNRVEINDVEPEVFKEMMCFIYTGKAPNLDKMADDLLAAADKYALERLKVMCEDALCSNLSVENAAEILILADLHSADQLKTQAVDFINYHASDVLETSGWKSMVVSHPHLVAEAYRSLASAQCPFLGPPRKRLKQS
On to B1, for which the “in vitro ubiquitination assay (western blot)” value is “The SPOP-CULLIN3-RBX1 complex was shown to catalyzed BRD4 ubiquitination in vitro”.
